From paper PMC3306366, “Oligomeric Status and Nucleotide Binding Properties of the Plastid ATP/ADP Transporter 1: Toward a Molecular Understanding of the Transport Mechanism” (PLoS ONE, 2012)
Read-outs that look alike come from different tables or passages of the source. Each block holds one molecule with its values, some of them ahead of it.

Experiments:
[1] = target: Chloroplast ATP/ADP transporter 1 (NTT1), mature form (Arabidopsis thaliana); assay: AUC; sedimentation velocity, NTT1 solubilised and purified in FC12; 42,000 rpm, 10°C
[2] = target: Chloroplast ATP/ADP transporter 1 (NTT1), mature form (Arabidopsis thaliana); assay: AUC; sedimentation velocity, NTT1 exchanged from detergent into amphipols; 42,000 rpm, 10°C
[3] = target: Chloroplast ATP/ADP transporter 1 (NTT1), mature form (Arabidopsis thaliana); assay: AUC; sedimentation velocity, NTT1 solubilised and purified in β-DDM; 42,000 rpm, 10°C
[4] = target: Chloroplast ATP/ADP transporter 1 (NTT1), mature form (Arabidopsis thaliana); assay: Multiple Angle Laser Light Scattering; purified NTT1 in LAPAO; data not shown
[5] = target: Chloroplast ATP/ADP transporter 1 (NTT1), mature form (Arabidopsis thaliana); assay: AUC; sedimentation velocity, purified protein in 20 mM Tris pH 8, 100 mM NaCl, 0.1% LAPAO, 3 mM desthiobiotin; 42,000 rpm, 10°C; c(s) analysis, absorbance and interference
[6] = target: T1, NTT1 (plastid / chloroplast ATP/ADP transporter 1) (Arabidopsis thaliana, UniProt Q39002, K528E); assay: tryptophan fluorescence variation; type: binding; details: read-out: Affinity for ADP
T1 construct: gene AATP1; mature form lacking first 79 residues (transit peptide), N-terminal His-tag, C-terminal StreptagII; E. coli; purified in LAPAO; monomers and dimers
T1 sequence (Q39002 80-624 K528E): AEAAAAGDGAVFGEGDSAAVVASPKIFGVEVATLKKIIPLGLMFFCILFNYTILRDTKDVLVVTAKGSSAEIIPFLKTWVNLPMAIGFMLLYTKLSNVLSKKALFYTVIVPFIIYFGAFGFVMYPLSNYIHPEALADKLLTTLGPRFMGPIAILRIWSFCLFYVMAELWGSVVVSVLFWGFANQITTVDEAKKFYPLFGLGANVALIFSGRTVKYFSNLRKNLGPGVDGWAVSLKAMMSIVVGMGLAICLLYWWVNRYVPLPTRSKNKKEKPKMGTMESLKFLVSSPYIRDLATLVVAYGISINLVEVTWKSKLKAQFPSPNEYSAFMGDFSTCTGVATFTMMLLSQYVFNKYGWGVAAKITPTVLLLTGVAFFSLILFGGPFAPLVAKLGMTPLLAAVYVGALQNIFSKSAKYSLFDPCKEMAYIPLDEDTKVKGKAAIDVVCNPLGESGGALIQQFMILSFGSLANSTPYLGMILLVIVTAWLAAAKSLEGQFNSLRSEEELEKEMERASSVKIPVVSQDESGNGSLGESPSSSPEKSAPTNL
From the text: (§1) tryptophan fluorescence variation on NTT1 (plastid / chloroplast ATP/ADP transporter 1)

[7] = target: T2, NTT1 (plastid / chloroplast ATP/ADP transporter 1) (Arabidopsis thaliana, UniProt Q39002, E246K); assay: tryptophan fluorescence variation; type: binding
T2 construct: gene AATP1; mature form lacking first 79 residues (transit peptide), N-terminal His-tag, C-terminal StreptagII; E. coli; purified in LAPAO; monomers and dimers
T2 sequence (Q39002 80-624 E246K): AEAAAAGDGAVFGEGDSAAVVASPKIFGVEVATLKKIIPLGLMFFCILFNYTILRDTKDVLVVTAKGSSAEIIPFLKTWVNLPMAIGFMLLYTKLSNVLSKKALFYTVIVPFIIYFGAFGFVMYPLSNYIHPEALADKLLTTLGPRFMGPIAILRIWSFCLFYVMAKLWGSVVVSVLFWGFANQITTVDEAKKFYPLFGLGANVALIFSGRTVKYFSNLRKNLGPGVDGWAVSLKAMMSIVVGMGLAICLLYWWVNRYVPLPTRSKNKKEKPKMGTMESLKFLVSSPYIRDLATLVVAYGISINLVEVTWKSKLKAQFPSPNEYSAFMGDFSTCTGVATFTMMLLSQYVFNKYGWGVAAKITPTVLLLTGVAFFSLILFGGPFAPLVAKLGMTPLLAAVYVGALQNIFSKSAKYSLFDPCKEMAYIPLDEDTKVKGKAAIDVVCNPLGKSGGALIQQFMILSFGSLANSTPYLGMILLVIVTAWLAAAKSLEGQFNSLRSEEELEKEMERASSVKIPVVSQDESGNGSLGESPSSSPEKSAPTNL
From the text: as §1

[8] = target: T3, NTT1 (plastid / chloroplast ATP/ADP transporter 1) (Arabidopsis thaliana, UniProt Q39002, K528R); assay: tryptophan fluorescence variation; type: binding
T3 construct: gene AATP1; mature form lacking first 79 residues (transit peptide), N-terminal His-tag, C-terminal StreptagII; E. coli; purified in LAPAO; monomers and dimers
T3 sequence (Q39002 80-624 K528R): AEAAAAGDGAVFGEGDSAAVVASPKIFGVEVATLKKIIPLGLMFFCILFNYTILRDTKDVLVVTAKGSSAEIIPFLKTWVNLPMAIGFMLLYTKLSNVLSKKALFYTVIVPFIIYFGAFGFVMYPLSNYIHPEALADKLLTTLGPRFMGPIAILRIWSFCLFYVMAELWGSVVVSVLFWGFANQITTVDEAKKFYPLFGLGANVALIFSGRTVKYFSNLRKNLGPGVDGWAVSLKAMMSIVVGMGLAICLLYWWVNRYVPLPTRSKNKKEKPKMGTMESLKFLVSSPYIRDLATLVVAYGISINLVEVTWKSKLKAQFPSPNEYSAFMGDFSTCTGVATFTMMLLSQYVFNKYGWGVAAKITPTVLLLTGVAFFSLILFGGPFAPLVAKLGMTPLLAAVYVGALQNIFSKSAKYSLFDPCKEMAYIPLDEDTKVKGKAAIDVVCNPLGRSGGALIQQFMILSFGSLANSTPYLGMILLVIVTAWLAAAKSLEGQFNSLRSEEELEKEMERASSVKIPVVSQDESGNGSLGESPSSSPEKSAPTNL
From the text: as §1

NTT1ΔC = target: T4, NTT1ΔC (Arabidopsis thaliana, UniProt Q39002); assay: tryptophan fluorescence variation, two-site fit; type: binding; details: 20 mM Tris pH 8, 10 mM NaCl, 0.1% LAPAO, 25°C, stronger site of two-site fit
T4 construct: gene AATP1; mature form (first 79 residues removed) with last 41 residues deleted (deletion borders computed from a recalled length of 624); tagged; E. coli; purified in LAPAO; partly aggregated
T4 sequence (Q39002 80-583): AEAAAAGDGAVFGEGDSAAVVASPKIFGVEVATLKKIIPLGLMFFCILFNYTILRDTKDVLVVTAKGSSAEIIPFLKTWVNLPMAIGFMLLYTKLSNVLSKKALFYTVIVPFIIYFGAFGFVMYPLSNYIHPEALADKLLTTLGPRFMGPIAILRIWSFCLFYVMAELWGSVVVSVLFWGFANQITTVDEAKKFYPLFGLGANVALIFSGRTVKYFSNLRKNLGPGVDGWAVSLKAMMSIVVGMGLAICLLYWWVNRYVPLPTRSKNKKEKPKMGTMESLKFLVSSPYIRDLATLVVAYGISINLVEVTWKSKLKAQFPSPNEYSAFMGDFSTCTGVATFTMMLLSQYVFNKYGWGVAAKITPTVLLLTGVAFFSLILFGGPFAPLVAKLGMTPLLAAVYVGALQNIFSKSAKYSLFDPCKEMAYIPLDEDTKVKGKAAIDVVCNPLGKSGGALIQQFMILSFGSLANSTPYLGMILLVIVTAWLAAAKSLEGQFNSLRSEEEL
From the text: tryptophan fluorescence variation, two-site fit on NTT1ΔC

[9] = target: T5, NTT1 (plastid / chloroplast ATP/ADP transporter 1) (Arabidopsis thaliana, UniProt Q39002); assay: tryptophan fluorescence quenching; type: binding; details: 20 mM Tris pH 8, 10 mM NaCl, 0.1% LAPAO, 25°C; no Mg2+, no Pi; one-site fit; read-out: Affinity
T5 construct: gene AATP1; mature form lacking first 79 residues (transit peptide), N-terminal His-tag, C-terminal StreptagII; E. coli; purified in LAPAO; monomers and dimers
T5 sequence (Q39002 80-624): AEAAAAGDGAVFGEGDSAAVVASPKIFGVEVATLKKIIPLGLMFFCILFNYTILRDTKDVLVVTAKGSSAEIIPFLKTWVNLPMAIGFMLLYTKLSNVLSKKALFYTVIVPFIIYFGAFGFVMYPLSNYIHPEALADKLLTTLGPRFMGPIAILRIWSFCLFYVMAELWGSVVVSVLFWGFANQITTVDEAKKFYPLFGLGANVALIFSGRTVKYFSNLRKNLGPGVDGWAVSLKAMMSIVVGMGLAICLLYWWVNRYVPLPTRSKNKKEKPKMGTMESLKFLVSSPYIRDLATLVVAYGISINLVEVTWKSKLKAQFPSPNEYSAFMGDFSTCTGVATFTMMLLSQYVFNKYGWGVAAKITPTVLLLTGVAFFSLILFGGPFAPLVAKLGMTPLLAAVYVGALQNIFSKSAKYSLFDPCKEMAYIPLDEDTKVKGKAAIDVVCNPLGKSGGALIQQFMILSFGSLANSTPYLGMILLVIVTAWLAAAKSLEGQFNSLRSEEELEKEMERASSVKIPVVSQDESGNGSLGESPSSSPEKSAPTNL
From the text: tryptophan fluorescence quenching on NTT1 (plastid / chloroplast ATP/ADP transporter 1)

[10] = target: T6, NTT1 (plastid / chloroplast ATP/ADP transporter 1) (Arabidopsis thaliana, UniProt Q39002, K156R); assay: tryptophan fluorescence variation; type: binding; details: read-out: Affinity for ATP
T6 construct: gene AATP1; mature form lacking first 79 residues (transit peptide), N-terminal His-tag, C-terminal StreptagII; E. coli; purified in LAPAO; monomers and dimers
T6 sequence (Q39002 80-624 K156R): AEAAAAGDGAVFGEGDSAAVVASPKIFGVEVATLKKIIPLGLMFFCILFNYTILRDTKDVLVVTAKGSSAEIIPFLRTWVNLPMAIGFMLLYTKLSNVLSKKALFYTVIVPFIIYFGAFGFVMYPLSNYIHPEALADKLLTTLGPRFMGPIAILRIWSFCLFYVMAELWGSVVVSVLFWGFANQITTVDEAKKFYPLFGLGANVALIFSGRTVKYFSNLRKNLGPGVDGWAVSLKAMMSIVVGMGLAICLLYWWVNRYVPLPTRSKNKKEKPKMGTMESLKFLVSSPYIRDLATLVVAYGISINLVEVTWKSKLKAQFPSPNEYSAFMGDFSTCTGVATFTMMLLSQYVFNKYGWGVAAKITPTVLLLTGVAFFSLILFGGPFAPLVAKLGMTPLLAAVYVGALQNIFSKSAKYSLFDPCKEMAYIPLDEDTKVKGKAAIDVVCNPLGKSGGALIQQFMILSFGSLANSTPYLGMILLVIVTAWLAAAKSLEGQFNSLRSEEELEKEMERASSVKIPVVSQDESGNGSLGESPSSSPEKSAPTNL
From the text: as §1

[11] = substrate: Nc1ncnc2c1ncn2[C@@H]1O[C@H](COP(=O)(O)OP(=O)(O)OP(=O)(O)O)[C@@H](O)[C@H]1O; assay: radioactive ATP uptake in whole E. coli cells; type: cell-based, Arabidopsis thaliana; details: transport Km; C-terminal Mistic fusion
From the text: radioactive ATP uptake in whole E. coli cells on […]

[12] = substrate: Nc1ncnc2c1ncn2[C@@H]1O[C@H](COP(=O)(O)OP(=O)(O)O)[C@@H](O)[C@H]1O; assay: ATP/ADP exchange by luciferase luminescence, whole E. coli cells; type: cell-based, Arabidopsis thaliana; details: transport Km; C-terminal Mistic fusion
From the text: ATP/ADP exchange by luciferase luminescence, whole E. coli cells on NTT1mis

Molecule: Nc1ncnc2c1ncn2[C@@H]1O[C@H](COP(=O)(O)OP(=O)(O)O)[C@@H](O)[C@H]1O [ADP]
- Kd [6]: 19 ± 24.1 µM
- Kd ([7]; read-out: Affinity for ADP): 14 ± 5.1 µM
- Kd ([8]; read-out: Affinity for ADP): 33.5 ± 22.3 µM
- Kd (NTT1ΔC; read-out: Affinity for ADP): 0.6 ± 0.7 µM
- Kd [9]: 8.6 ± 1.5 µM

B1: NTT1mis (Arabidopsis thaliana) (protein)
chain: AEAAAAGDGAVFGEGDSAAVVASPKIFGVEVATLKKIIPLGLMFFCILFNYTILRDTKDVLVVTAKGSSAEIIPFLKTWVNLPMAIGFMLLYTKLSNVLSKKALFYTVIVPFIIYFGAFGFVMYPLSNYIHPEALADKLLTTLGPRFMGPIAILRIWSFCLFYVMAELWGSVVVSVLFWGFANQITTVDEAKKFYPLFGLGANVALIFSGRTVKYFSNLRKNLGPGVDGWAVSLKAMMSIVVGMGLAICLLYWWVNRYVPLPTRSKNKKEKPKMGTMESLKFLVSSPYIRDLATLVVAYGISINLVEVTWKSKLKAQFPSPNEYSAFMGDFSTCTGVATFTMMLLSQYVFNKYGWGVAAKITPTVLLLTGVAFFSLILFGGPFAPLVAKLGMTPLLAAVYVGALQNIFSKSAKYSLFDPCKEMAYIPLDEDTKVKGKAAIDVVCNPLGKSGGALIQQFMILSFGSLANSTPYLGMILLVIVTAWLAAAKSLEGQFNSLRSEEELEKEMERASSVKIPVVSQDESGNGSLGESPSSSPEKSAPTNL
notes: expressed in E. coli, assayed in whole cells; with Protein mistic
- Km [11]: 13.2 ± 5.3 µM
- Km [12]: 12.0 ± 5.2 µM

The remaining lines, values ahead:

- dimer (% of the three species) [1]: 35%
- tetramer (% of the three species) [1]: 18%
- dimer (% of the three species) [2]: 33%
- tetramer (% of the three species) [2]: 23%
- dimer (% of the three species) [3]: 29%
- stoichiometry N [4]: 4
- dimer (% of the three species) [5]: 35%
- stoichiometry N [5]: 2
- tetramer (% of the three species) [5]: 23%
Molecule: Chloroplast ATP/ADP transporter 1 (NTT1), mature form (natural protein)

- Kd [10]: 91.2 ± 58.8 µM
- Kd ([7]; read-out: Affinity for ATP): 1.9 ± 1.7 µM
- Kd ([8]; read-out: Affinity for ATP): > 1000 µM
- Kd (NTT1ΔC; read-out: Affinity for ATP): 0.7 ± 0.5 µM
- Kd [9]: 4.2 ± 0.7 µM
Molecule: Nc1ncnc2c1ncn2[C@@H]1O[C@H](COP(=O)(O)OP(=O)(O)OP(=O)(O)O)[C@@H](O)[C@H]1O [ATP]
